According to paper PMC9536601 (2022):

Molecular target: human prothrombin (FII) (human, UniProt P00734 44-622, gamma-carboxylated glutamate residues in the Gla domain)
Test: SPR

B1: Ad1 hexon, on wild-type human adenovirus type 1 virions (natural protein)
chain: ATPSMMPQWSYMHISGQDASEYLSPGLVQFARATETYFSLNNKFRNPTVAPTHDVTTDRSQRLTLRFIPVDREDTAYSYKARFTLAVGDNRVLDMASTYFDIRGVLDRGPTFKPYSGTAYNALAPKGAPNSCEWEQEEPTQEMAEELEDEEEAEEEEAEEEAEAPQADQKVKKTHVYAQAPLAGEKITANGLQIVSDTQTEGNPVFADPTYQPEPQVGESQWNEAEATASGGRVLKKTTPMKPCYGSYARPTNKNGGQGILVANNQGALESKVEMQFFAPSGTAMNERNAVQPSIVLYSEDVNMETPDTHISYKPSKTDENSKAMLGQQAMPNRPNYIAFRDNFIGLMYYNSTGNMGVLAGQASQLNAVVDLQDRNTELSYQLLLDSIGDRTRYFSMWNQAVDSYDPDVRIIENHGTEDELPNYCFPLGGIGVTDTYQGIKSNGNGNPQNWTKNDDFAARNEIGVGNNFALEINLNANLWRNFLYSNIALYLPDKLKYTPTNVEISPNPNSYDYMNKRVVAPGLVDCYINLGARWSLDYMDNVNPFNHHRNAGLRYRSMLLGNGRYVPFHIQVPQKFFAIKNLLLLPGSYTYEWNFRKDVNMVLQSSLGNDLRVDGASIKFDSICLYATFFPMAHNTASTLEAMLRNDTNDQSFNDYLSAANMLYPIPANATNVPISIPSRNWAAFRGWAFTRLKTKETPSLGSGYDPYYTYSGSIPYLDGTFYLNHTFKKVAITFDSSVSWPGNDRLLTPNEFEIKRSVDGEGYNVAQCNMTKDWFLVQMLANYNIGYQGFYIPESYKDRMYSFFRNFQPMSRQVVDDTKYKDYQQVGILHQHNNSGFVGYLAPTMREGQAYPANFPYPLIGKTAVDSITQKKFLCDRTLWRIPFSSNFMSMGALTDLGQNLLYANSAHALDMTFEVDPMDEPTLLYVLFEVFDVVRVHQPHRGVIETVYLRTPFSAGNATT
B1 gave a Kd of 5 nM.
